We go through eight substances from US4829052A, “Serine protease inhibitors” (Monsanto Company, priority 1987, dated 1989).

“Also recorded” adds a separate entry of the source.

What all share (type): biochemical
In experiment [1] the target is bovine chymotrypsin (Bos taurus, UniProt P00766). Briefly: Chymotrypsin assay (spectrophotometric, p-nitroanilide substrate). To be noted: for Inhibitory Activity Chymotrypsin: inhibitor/protease ratio between about 10/1 and 50/1. Here is the method: (§1) The inhibitory activity of the polypeptides of the present invention can be easily assayed using in vitro assays. In these types of spectrophotometric assays the activity of the serine protease is measured toward an appropriate p-nitroanilide substrate in the presence and absence of the peptide inhibitor. The enzyme catalyzed hydrolysis of the peptide p-nitroanilide substrate produces p-nitroanaline which results in an increase in absorbance which is monitored in the range of 405 to 410 nm. The rate of increase in absorbance is a measure of the enzymatic activity and the decrease in this rate relative to a suitable control is used to ascertain inhibition. The general assay procedure and details of the particular assays employed in the examples are provided in the Appendix following the examples. It is also possible to test the polypeptides in a functionally oriented assay that emulates in vivo conditions. Such an inhibition assay for elastase is also described in the Appendix.
(§2) Generalized Protocol Spectrophotometric Assays:
(§3) (1) Pipette 100 μl of enzyme solution into a disposable polystyrene cuvette (1 cm optical path length).
(§4) (2) Add (1900-X) μl of bufferto the cuvette, where X is the volume of test solution in microliters that is added in the next step.
(§5) Add X μl of test solution to the cuvette, where X ranges from 0 μl for the control to a maximum of about 500 μl. Incubate the solution for a period of 1 to 5 minutes at ambient temperature.
(§6) (4) Add 100 μl of substrate solution to the cuvette. Mix the contents by covering the cuvette with a piece of paraffin film and repeatedly inverting for a period of 5 to 15 seconds.
(§7) (5) Record the change in absorbance for about 5 minutes at either 405 or 410 nm, depending on the assay, with a spectrophotometer equipped with a suitable recording device.
(§8) The percent inhibition is calculated from the formula [formula] where (ΔA/min) is the initial rate of absorbance change.
(§9) (7) For more accurate quantitative determinations temperature control of the cuvette holders and the reagent solutions can be instituted.
(§10) (8) The test solution can be crude oxidized peptide prepared as described above, fractions from a chromatographic separation or purified polypeptides.
(A) Buffer solution - triethanolamine buffer- See trypsin assay.
(B) Substrate Solution - Dissolve 25 mg of 3-carbomethoxypropionyl-L-arginyl-L-prolyl-L-tyrosine p-nitroanilide (Product No. S-2586, KabiVitrum AB, Stockholm, Sweden) in 23.6 ml of water
(C) Enzyme solution - Dissolve 1 mg of bovine chymotrypsin in 4 ml of 0.001N HCl. Prepare the final dilution by combining 0.1 ml of the stock chymotrypsin solution and 10 ml of 0.001N HCl. Store on ice or at 4° C.
Procedure: Use the above solutions in the general protocol
(2) See note 1 of the cathepsin G assay.
(3) 0.1M Tris-HCl, pH 7.8, 20 mM CaCl2, 0.05% triton X-100 can be substituted for the triethanolamine buffer.

Experiment [2] concerns the target T1, Human Sputum Elastase (Homo sapiens, UniProt P08246).
T1 construct: Human Sputum Elastase, product No. SE-563 EPC, Inc., Pacific, Mo; USA, Lot 85701; purchased EPC, Inc., Pacific, Mo; USA SE-563; host or cells: human sputum
T1 sequence (P08246 30-267): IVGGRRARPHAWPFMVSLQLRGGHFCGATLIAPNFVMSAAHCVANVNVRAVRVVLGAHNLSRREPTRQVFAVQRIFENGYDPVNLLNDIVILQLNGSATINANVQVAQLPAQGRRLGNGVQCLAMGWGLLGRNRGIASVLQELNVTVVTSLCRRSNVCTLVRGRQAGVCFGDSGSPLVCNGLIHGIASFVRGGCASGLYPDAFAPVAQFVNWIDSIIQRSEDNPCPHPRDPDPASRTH
Briefly: Elastase assay (spectrophotometric, p-nitroanilide substrate). To be noted: for Inhibitory Activity Elastase: inhibitor/protease ratio between about 10/1 and 50/1; for inhibition of human elastase (in words): text discussion of Table III. Here is the method: as §1, §2, §3, §4, §5, §6, §7, §8, §9, §10
(A) Buffer Solution - Tris-NaCl buffer consisting of 0.1M Tris-HCl pH 7.5 at 25° C. containing 0.5M NaCl and 0.01% (w/v) NaNs.
(B) Substrate Solution - Dissolve 45.5 mg of N-succinyl-L-alanyl-L-alanyl-L-alanine p-nitroanilide in 1 ml of 1-methyl-2-pyrrolidinone. Add 32 ml of Tris-NaCl buffer.
(C) Enzyme Solution - Human Sputum Elastase, product No. SE-563 EPC, Inc., Pacific, Mo. USA, Lot 85701. Dissolve 1 mg in 1 ml of Tris-NaCl buffer. Store on ice or at 4° C.
(§11) (D) Test Solution - See general protocol, number 8.
(§12) Procedure: Use the above solutions in the general protocol described above.
(1) Buffer Solution - Tris-NaCl buffer -see Method 1.
(2) Substrate Solution - Dissolve 50 mg of 3-carbomethoxypropionyl-L-alanyl-L-alanyl-L-[…]-L-valine p-nitroanilidein 1 ml of 1-methyl-2-pyrrolidinone. Add 32 ml of Tris-NaCl buffer.
(3) Enzyme Solution - Human sputum elastase, product No. SE-563, EPC, inc. Pacific, Mo. USA, Lot 85071. Prepare a sample at a concentration of 0.01 mg per ml of Tris-NaCl buffer. Store on ice.
(4) Test Solution - general protocol, number 8.
Procedure: Use the above solutions in the general protocol.
(1) Porcine pancreatic elastase may be substituted for human elastase when it is desired to test for an inhibitor of the former.
(2) The activity of an elastase preparation can be calculated as [formula]
(3) The Tris-NaCl buffer also can be pH 8.0 with 0.03% sodium azide. Results should be compared at a single pH.

The target of experiment [3] is T2, bovine trypsin (Bos taurus, UniProt P00760).
T2 sequence (P00760 24-246): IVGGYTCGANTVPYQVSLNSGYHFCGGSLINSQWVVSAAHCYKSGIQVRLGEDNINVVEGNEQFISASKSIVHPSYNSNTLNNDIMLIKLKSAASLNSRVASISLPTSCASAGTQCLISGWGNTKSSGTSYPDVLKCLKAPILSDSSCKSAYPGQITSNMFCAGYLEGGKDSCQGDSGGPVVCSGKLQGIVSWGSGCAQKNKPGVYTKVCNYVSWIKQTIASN
Briefly: Trypsin assay (spectrophotometric, N-Benzoyl-L-arginine p-nitroanilide substrate). The note with it: for Inhibitory Activity Trypsin: inhibitor/protease ratio between about 10/1 and 50/1. The procedure:
as §1, §2, §3, §4, §5, §6, §7, §8, §9, §10
(A) Buffer Solution - Triethanolamine buffer consisting of 200 mM triethanolamine, 20 mM CaCl2, pH 7.8
(B) Substrate solution - Dissolve 50 mg of N-Benzoyl-L-arginine p-nitroanilide in 50 ml of water. Sonicate for 5 to 10 minutes to completely dissolve the solid material.
(C) Enzyme solution - Dissolve 1 mg of bovine trypsin in 10 ml of 0.001N HCl stored on ice during the assay.
as §11, §12

Experiment [4] concerns the target T3, Human Sputum Cathepsin G (Homo sapiens, UniProt P08311).
T3 construct: Human Sputum Cathepsin G (Product No. SG-45, EPC, Inc., Pacific, Mo.); purchased EPC, Inc., Pacific, Mo; SG-45; host or cells: human sputum
T3 sequence (P08311 21-255): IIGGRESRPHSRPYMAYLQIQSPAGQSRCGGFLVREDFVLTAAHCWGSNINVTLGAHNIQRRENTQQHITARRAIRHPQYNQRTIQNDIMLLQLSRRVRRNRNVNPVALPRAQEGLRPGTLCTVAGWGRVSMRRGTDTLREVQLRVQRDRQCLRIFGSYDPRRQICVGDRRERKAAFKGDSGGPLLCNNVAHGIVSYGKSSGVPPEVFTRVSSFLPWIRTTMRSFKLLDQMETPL
Briefly: Cathepsin G assay (spectrophotometric, p-nitroanilide substrate). To be noted: for Inhibitory Activity Cathepsin G: inhibitor/protease ratio between about 10/1 and 50/1. Here is the method:
as §1, §2, §3, §4, §5, §6, §7, §8, §9, §10
(A) Buffer Solution - Tris-NaCl buffer consisting of 0.1M Tris-HCl, pH 8.0 containing 0.5M NaCl and 0.03% sodium azide.
(B) Substrate solution - Dissolve 50 mg of N-succinyl-L-alanyl-L-alanyl-L-prolyl-L-phenylalanine p-nitroanilide in 1 ml of 1-methyl-2-pyrrolidinone and dilute to 50 ml with Tris-NaCl buffer.
(C) Enzyme Solution - Human Sputum Cathepsin G (Product No. SG-45, EPC, Inc., Pacific, Mo.). Dissolve 1 mg of protein per 1 ml of Tris-NaCl buffer. Store on ice or at 4° C.
(D) Test Solutions - See the general protocol, number 8.
Procedure: Use the above solution in the general protocol described above. […]

For “RVCPMILMKCKKDSDCLAECVCLEHGYCG (RVCPMILMKCKKDSDCLAECVCLEHGYCG) [Peptide 22]”, the “Inhibitory Activity Chymotrypsin” value in experiment [1] is recorded as “++ (Represents greater than 50% inhibition)”. The “inhibition of chymotrypsin (in words)” value in experiment [1] (text discussion of Table III) is “inhibits”. In addition, in experiment [2], the “Inhibitory Activity Elastase” value is “++ (Represents greater than 50% inhibition)” and the “inhibition of human elastase (in words)” value is “inhibits”. In addition, in experiment [3], the “Inhibitory Activity Trypsin” value is on record as “++ (Represents greater than 50% inhibition)”. Moreover, the “inhibition of trypsin (in words)” value in experiment [3] (text discussion of Table III) is on record as “inhibits”. The “Inhibitory Activity Cathepsin G” value in experiment [4] is “+ (Represents between 10% and 50% inhibition)”. Also, the “inhibition of cathepsin G (in words)” value in experiment [4] (text discussion of Table III) is recorded as “inhibits”.

For the substance “R V C P V I L Nle KCKKDSDCLAECVCLEHGYCG [Peptide 43]”, the “Inhibitory Activity Chymotrypsin” value in experiment [1] is reported as “- (Represents less than 10% inhibition)”. Besides, in experiment [2], the “Inhibitory Activity Elastase” value is “++ (Represents greater than 50% inhibition)”. For the same substance, the “Inhibitory Activity Trypsin” value in experiment [3] was “- (Represents less than 10% inhibition)”. Besides, the “Inhibitory Activity Cathepsin G” value in experiment [4] is “- (Represents less than 10% inhibition)”.

For the substance “RVPCVILMKLKKDSDCLAECVCLEHGYCG (RVPCVILMKLKKDSDCLAECVCLEHGYCG) [Peptide 50]”, in experiment [1], the “Inhibitory Activity Chymotrypsin” value was “- (Represents less than 10% inhibition)”. In addition, in experiment [2], the “Inhibitory Activity Elastase” value is on record as “- (Represents less than 10% inhibition)” and the “inhibition of human elastase (in words)” value is “only marginal activity”. The “Inhibitory Activity Trypsin” value in experiment [3] is on record as “- (Represents less than 10% inhibition)”. Further, in experiment [4], the “Inhibitory Activity Cathepsin G” value is on record as “- (Represents less than 10% inhibition)”.

For the substance “RVCPVALMKCKKDSDCLAECVCLEHGYCG (RVCPVALMKCKKDSDCLAECVCLEHGYCG) [Peptide 48]”, in experiment [1], the “Inhibitory Activity Chymotrypsin” value was “- (Represents less than 10% inhibition)”. In experiment [2], the “Inhibitory Activity Elastase” value is “+ (Represents between 10% and 50% inhibition)”; the “inhibition of human elastase (in words)” value was “continue to be inhibitors of human elastase”. Also, the “Inhibitory Activity Trypsin” value in experiment [3] was “- (Represents less than 10% inhibition)”. Also, in experiment [4], the “Inhibitory Activity Cathepsin G” value is given as “- (Represents less than 10% inhibition)”.

As for “RVCPVILLKCKKDSDCLAECVCLEHGYCG (RVCPVILLKCKKDSDCLAECVCLEHGYCG) [Peptide 45]”, the “Inhibitory Activity Chymotrypsin” value in experiment [1] is “- (Represents less than 10% inhibition)”. For the same substance, in experiment [2], the “Inhibitory Activity Elastase” value is reported as “++ (Represents greater than 50% inhibition)” and the “inhibition of human elastase (in words)” value is listed as “continue to be inhibitors of human elastase”. Moreover, the “Inhibitory Activity Trypsin” value in experiment [3] is listed as “- (Represents less than 10% inhibition)”. Moreover, the “Inhibitory Activity Cathepsin G” value in experiment [4] is “- (Represents less than 10% inhibition)”.

In the case of “RVCPLILMKCKKDSDCLAECVCLEHGYCG (RVCPLILMKCKKDSDCLAECVCLEHGYCG) [Peptide 29]”, in experiment [1], the “Inhibitory Activity Chymotrypsin” value was “++ (Represents greater than 50% inhibition)”. In addition, in experiment [2], the “Inhibitory Activity Elastase” value is given as “++ (Represents greater than 50% inhibition)” and the “inhibition of human elastase (in words)” value was “continue to be inhibitors of human elastase”. In addition, the “Inhibitory Activity Trypsin” value in experiment [3] was “++ (Represents greater than 50% inhibition)”. For the same substance, the “Inhibitory Activity Cathepsin G” value in experiment [4] was “+ (Represents between 10% and 50% inhibition)”.

As for “RVPCVALMKCKKDSDCLAECVCLEHGYCG (RVPCVALMKCKKDSDCLAECVCLEHGYCG) [Peptide 49]”, the “Inhibitory Activity Chymotrypsin” value in experiment [1] is “- (Represents less than 10% inhibition)”. In experiment [2], the “Inhibitory Activity Elastase” value is “+ (Represents between 10% and 50% inhibition)”; the “inhibition of human elastase (in words)” value was “continue to be inhibitors of human elastase; also recorded: only marginal activity”. Also, in experiment [3], the “Inhibitory Activity Trypsin” value is “- (Represents less than 10% inhibition)”. For the same substance, in experiment [4], the “Inhibitory Activity Cathepsin G” value was “- (Represents less than 10% inhibition)”.

For the substance “RVCPAILMKCKKDSDCLAECVCLEHGYCG (RVCPAILMKCKKDSDCLAECVCLEHGYCG) [Peptide 36]”, the “Inhibitory Activity Chymotrypsin” value in experiment [1] is given as “++ (Represents greater than 50% inhibition)”. For the same substance, in experiment [2], the “Inhibitory Activity Elastase” value was “++ (Represents greater than 50% inhibition)” and the “inhibition of human elastase (in words)” value is recorded as “continue to be inhibitors of human elastase”. The “Inhibitory Activity Trypsin” value in experiment [3] was “+ (Represents between 10% and 50% inhibition)”. Besides, in experiment [4], the “Inhibitory Activity Cathepsin G” value is “+ (Represents between 10% and 50% inhibition)”.
